# Assay results published in paper PMC10235969 (Proceedings of the National Academy of Sciences of the …, 2023).
# T1: Drosophila melanogaster RMC1 (Drosophila melanogaster, UniProt Q9VRX1 1-642)
# T1 sequence: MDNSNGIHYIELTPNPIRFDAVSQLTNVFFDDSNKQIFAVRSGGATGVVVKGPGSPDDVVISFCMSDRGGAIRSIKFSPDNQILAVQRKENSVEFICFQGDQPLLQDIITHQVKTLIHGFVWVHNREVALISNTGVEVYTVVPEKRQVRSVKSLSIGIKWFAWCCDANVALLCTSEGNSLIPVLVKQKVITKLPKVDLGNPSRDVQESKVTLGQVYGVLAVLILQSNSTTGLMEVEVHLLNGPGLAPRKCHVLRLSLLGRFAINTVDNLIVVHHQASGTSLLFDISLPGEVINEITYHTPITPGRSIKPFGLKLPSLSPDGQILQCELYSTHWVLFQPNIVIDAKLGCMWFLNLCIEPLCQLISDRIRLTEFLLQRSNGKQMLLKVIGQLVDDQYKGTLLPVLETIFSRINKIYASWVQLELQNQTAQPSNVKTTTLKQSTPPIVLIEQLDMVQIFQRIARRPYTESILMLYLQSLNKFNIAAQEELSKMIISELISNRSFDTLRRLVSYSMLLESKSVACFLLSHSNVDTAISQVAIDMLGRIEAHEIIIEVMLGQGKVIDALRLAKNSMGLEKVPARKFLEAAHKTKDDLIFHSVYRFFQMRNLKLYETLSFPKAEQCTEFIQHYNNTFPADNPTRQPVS
# B1: Drosophila melanogaster Mon1 (natural protein)
# chain: MEVEQTSVRSDTNSTCEYLDAEGDPESPNLYQEADPDQEAEQQNHSIISELRDGLGTMRDNSALSPEPGQENKGLAASVESLALSTSTSAKTEDSIGGGLEEEYDYQHDSLWQGQKKHIFILSEAGKPIFSLHGNEDKLATLFGVIQALVSFVQMGQDAITSIHAGGIKFAFMQRSSLILVAASRSNMSVQQLQLQLGDVYNQILSILTYSHMTKIFERRKNFDLRRLLSGSERLFYNLLANDSSSAKVSNNIFTFLTNSIRVFPLPTTIRSQITSAIQSNCSKIKNLVFAVLIANNKLIALVRMKKYSIHPADLRLIFNLVECSESFKSSENWSPICLPKFDMNGYLHAHVSYLADDCQACLLLLSVDRDAFFTLAEAKAKITEKLRKSHCLEAINEELQQPFNAKLYQQVVGIPELRHFLYKPKSTAQLLCPMLRHPYKSLTELERLEAIYCDLLHRIHNSSRPLKLIYEMKEREVVLAWATGTYELYAIFEPVVDKATVIKYVDKLIKWIEKEYDVYFIRNHATF
# B2: Drosophila melanogaster Ccz1 (natural protein)
# chain: MAKLLQRVEITLRSFYIFNSTFGQVEGEEHKKVLFYHPNDIELNTKIKDVGLSEAIIRFTGTFTSEDDCQALHTQKTTQLFYQPEPGYWLVLVLNVPKEVRLKEGVEVADYRGAEISDRIYRAILRQCYQMFRFQNGCFSSCGSEEPNPDKRRELLCQKLLQFYDQHLTNLRDPAQCDIIDMLHSIQYLPLDKTLFLRAQNFGTLCETFPDIKESIMLYQEQVLCGGKLSPEDLHCVHSYVVQHVLKVEASSSTIAVSPSLKRSISECQVGGFVRSRQKVAGDEHDAVNEEDHPMKVYVTLDKEAKPYYLLIYRALHITLCLFLNADQVAPKQDLYDDLHAYMAPQLTSLARDISSELTKEAVGAAGQDNSSGNSETAPKYLFINEQSLQHHTNFQRHLPQGLPRNVLSIIADLANGSGKAEMESAPAEEVQVKTTNDYWIVKRRCNYRQYYVILCNSKATLLDVTQEARRIFEQELTDDVFFDK
# Key:
# [1] = target: T1, Drosophila melanogaster RMC1; assay: cryo-EM structure
# [2] = target: B1; assay: cryo-EM structure
binding result [1],binding result [2],Binder
binds,–,B1
binds,binds,B2
